Consider one molecule from PMC2185789 (The Journal of Experimental Medicine, 1980).

The target in the experiment is C5b-8 complex (human, UniProt P01031 752-1676; P01031 19-673; P13671 22-934; P10643 23-843; P07357 31-584; …). Nature of the experiment: negative-stain electron microscopy.

B1: C9 (natural protein)
chain: not shown
For B1, the binding result is given as “binds”.
